Laboratory results reported in a protein production outcome set (Wang et al. 2014).

Assay: label from the status in PepcDB records

Row | Sequence | protein production
1 | MVNPTISDDLFAMIAKKVADKSWLDLKPLIRSGTRGRDIVYRPDVLKDANIYSLCRVPDDFQVGGGHNPTGPQGEGRNRPFFKRCLLANNPTAVYNEAIRVLIHETDINGALKLMQRHAPVRADATIVCAIIFICAGYEWN | not failed
2 | MVNQEKTLDVGFTHADFAALLDRYDYHFNPGDIVAGTVFSIEPKGALIDIGAKTAAYIPIQEMSINRIESPEEVLQPNETREFFILADENEEGQLTLSIRRIEYMRAWERVRQLQAEDATVRSQVFATNRGGALVRIEGLRGFIPGSHISTRVNKEELVGEELPLKFLEVDEERNRLVLSHRRALVERKMNKLEVGEVVVGTVRGIKPYGAFIDIGGVSGLLHISEISHDHIDTPHSVFNVNDQVKVMIIDLDAERGRISLSTKQLEPEPGDMVKNPQLVYEKAEEMAERYRQQLLQQQQQAAGETPEEGMEDIPEATEDDSPAPILQEALEHHHHHH | failed
3 | MVPAAMRGLNLALVDIGAGTSDIAITGQGTISGYAMVPSAGDEITEALASALILDFNTAERVKRQLSTRENLTFTDVVGQRHTLAAAELMEIIKPAVTELARQVATQIILLNGKPPQAVLLIGGGSLTPGLAAALAGQLEISPERVALEHHHHHH | failed
4 | MVPKFYKLSNGFKIPSIALGTYDIPRSQTAEIVYEGVKCGYRHFDTAVLYGNEKEVGDGIIKWLNEDPGNHKREEIFYTTKLWNSQNGYKRAKAAIRQCLNEVSGLQYIDLLLIHSPLEGSKLRLETWRAMQEAVDEGLVKSIGVSNYGKKHIDELLNWPELKHKPVVNQIEISPWIMRQELADYCKSKGLVVEAFAPLCHGYKMTNPDLLKVCKEVDRNPGQVLIRWSLQHGYLPLPKTKTVKRLEGNLAAYNFELSDEQMKFLDHPDAYEPTDWECTDAP | failed
5 | MVQELLKQLQNGEAKFADVLAYIESRFEHQPTAFKNGQQQNAATENQGSAKVFSLAQIEGLNQTETLSLFAEHYAAVLNTPEGTDHQNIRQFMQHGWDGVTFEGEALQAK | failed
6 | MVQIAGTPVPLSAKSRGPNALSSLLAALFLLLSQPASGAEAKQCIDNAELDAADKAFNSLHYAKADSLYQSMLQTGDQSSTLYWKLARLNISIAEAIDPSERKKRIPFYNKAVEYARKSVQLDENNASAHTWLAAALALKADKIGAKEKLNRAAEIKRELDKALALNPNDDVAWSMLGSYNFEASKIGWFSRFMGSTFVGKMPKGSREEAEKDFKKAISLNPRVIRHYHELALLYLEEDRKQEALNTLRIAETRPVLMKSDVRRLKEIKKLIAKLSKEIEEK | failed
7 | MVQSAPASEIAALILRGFDDYREQFREITDGARARFEQAQWQEAQRASAQRINLYEEKVAETVAGLRAGLADSELLDVERWPIIKSAYIAQIDLRLDDELAETWFNSIFCGLFSHDNISDGTMFVHTTRPSLRAHARAPYTRTYRPGGDLRQALEKIFDDYRFDVPYDDRERDLERIDALLHSNLPDWVCKDPDLAIELIGSVFYRNKGAYLVGRLFTPDEQWPLVFPLLHREDHGIQFDTVITDEAEVSIIFSFTRSYFMVDVPVPAELVAFLKRLLPGKHLAELYTSIGFYKQGKSEFYRALINHLATTDDRFVMAPGVRGMVMSVFTLPGFNTVFKIIKDRFNPSKSVDHATVIQKYQLVKNHDRVGRLADTQQFADFRFPVSKFEPECLAELLEVAPSTVVMEGDVVLIRHCWTERRMTPLNIYLENASEAQTREALNDYGLAIKQLAAANIFPGDMLLKNFGVTRHGRVVFYDYDEICYLTEVNFRYIPEPRFPEDEMSSEPWYSVGPNDVFPEEFPRFLFVDLNQRRLFAKLHGNLYDAKYWQGLQEQIREGKVIDVFPYRRQETPEQLLG | failed
8 | MVRADEMMDICMLAGEIMLINGAETYRVEETLERMAKAGQFRNVHSFVTTTGIFLSFEEEGAGDVMQMIRVDDRMQDLNKVTLVNQVSREFVNGEIDAAEALTKLQNIAKQPMNYSPLLLHTASGVAGGAFSYLFGGNLFDTLPAFIAGFVASMAVVHLQSYLKVRFFAEFMAAFTGGAVAILLVLIGLGENVDQVIIGTLMPLVPGIPLTNAVRDLISGDLLAGVTRGAECFVTSLSIATGIALAIALLS | failed
9 | MVRKGQMIIGAFACLIASMSWGAMFPVADHALEYIDPFYFSLIRYGAVAIMLIVLLLMKEGKQAFRLEGRGRLLVFFGTMAFTVYNVLIFLGQMLMGKSGVMVASIMEALMPMISICILWGYKRVKPKKYMITSMIIAFIGAVFVITKGDVSFFLTLKDNMFSLACIFVGVVGWVIYTMGGQTCSDWSTLRYSTLTCVFGTTVTGIITVLITSLGYVSVPSMGTISVVKYDLLFMMTLPGIVALLAWNYGVKILSSINGILFINFVPITTLVIMMMQGYQITMFDIVGTLFVIAALIRNNVCQRKEENINKKMLQEEQLRQAV | failed
10 | MVRVGMRAAPRVSLEALKAALGGLKLSEAKVYLITDWQDKRDQARYALLLHTGKKDLLVPDAFGPAFPGGEEALSELVGLLLAQGARRFYEAVVSPGEMTALLDLPPEELLKRVMAIANPTDPGIYLKRAA | not failed
11 | MVRVLSAGPELAFRSGDVVAPARTHPLVAAAPSCPMTAAAPRERADRWPRREDLFAIAYYLAAAAVLAWAGYAAWRIGVVLAGGALQQVGVRSCRQRDASRCVNATFDRIALYVVLGQASFFLTTALAAAVTGGEQSPLILPFLGSYFVAVSVVGDRVATRGLLAATAFGAAVLALLPDAVAGPALPALQRGVLTVVSVLGVGALLAPAHAETRRKRDQVARARSEMVSDALSRAQGLEQVGAKVAHELKNPLTGVKALVQLGLRNPAEAASHERLEVVDREVTRMQEIIQNYLSFNRPLQSVNPRQVALGPLVSDTMLVLSARADEARVRLYARGDASLEADPRRLKEALLNLVANAIEATPAGGEVVVEARELSGDEVELVVRDTGRGMPPETLRRIGTPFFTTRDDGTGLGVVLARAVIVQHGGTLRYESEPGSGTKVLVTLPRAAKRSGDVARAAGG | failed
12 | MVRVPLTAEELERGQRLGELLRSARGDMSMVTVAFDAGISVETLRKIETGRIATPAFFTIAAVARVLDLSLDDVAAVVTFGPVSTS | not failed
13 | MVSAAGELGTLRQRAWAAAANVVDPEIPVLTIEDLGVLRDVTVSGDRIEVSITPTYSGCPAMTMIALEIELALAREGIAGAKITTVLSPAWTTDWMSDAGRRKLRDYGIAPPLSGGGRRALFGEQQVACPQCGSIATTVLSEFGSTSCKALWRCLDCREPFDYFKCH | failed
14 | MVSACGLIALGLDNQAARMAARLRDLAREWRALPPHAARRGAVAEQVAVLDRRHGLYSRALLLNYGALFAFVVTSLLWLGQAYWSVPPELPVLVFGLGVAMLAAMAVLVIASITLARSTIEAEAAEVLRERRAPPASGRPAPARG | failed
15 | MVSANREMAVYCFDTLVSHYNNEETPPPAFEEANHPLFVTWKKIVNGGEPRLRGCIGTLEARRLISGFKDYALTSALRDRRFPPIQAKELPSLQCTVSVLTDYEDAEDYLDWEVGKHGIIIEFTEPETNTKRSATYLPEVPAHEGWTKIEAIDSLVRKAGYNGVITEAVRRRINLTRYQSTLFSMHYSEYLSYVKATRGVVGPVINGINKHAFA | failed
16 | MVSLIAKIHRRRAYLTVIAIMTFIVRLIPSRNFTLAGNDAYIHHDIVMRIAREGLGIIGHDIPSLMGLKAYAYPPLFHVMGYGLYLLFRSELVFFFISPLLGTATVLVIYKVARETFEREEVALLSAFLFSMVPSFVARTSVFIPESMGLLLTSGILYMLVKYLKTTPGYPDIDKFELKAFSNLFRGDLRYILGGLALFVIYLFTHRGWVFLLIALLLLAVTFLTPSFRKRPLEFGLIFLLIGAGIIEFITFAARFQSVPVTILGFPKWMGVLQLILGIYGASLLLRSKNPIHRFLIIWATAFMIIGTYSFRFRDPYAAIPLSLMGGYAFSEVKGRLYASKRFKSYSIMKRDVKPFLRTGIFALLVLMPLAQGAAIAYTGVTTPSPQQNAAFRWINDNTPQDAVFLSAIEDSYSLIGNTHRRDVLLWKTVYEGFMGSAPSLKENTMTRDEVSAIFQSSIPSETSYLLERNNISYIYISKSMHMKGIGLQLPVDPHFKTCFVSGDVSVYRYIKNPGIQSNYSSITVNGEDGKVVEFIEKFWNGYSQGTEPSHQGVSTL | failed
17 | MVSNGSIIHVNQNQFMMLVDGGKIVDYTAEPGYFKVENSASPSLFGGQFGDALKETFSRFKFGGTTPMKQEVFYVNLQEIKGIKFGTPNPLQYFDNFYNAELFLRTFGNYSIKITDPIKFFKEACPRDAENVHIDEINEQYLSEFLEALQAAISQMSMEGERISFIPSKGTVLSKHMSEILDDSWKELRGMEVLSVGIASISYDDESKELINMRNKGAMLGDPGVREGYVQGSIARGMEAAGSNQAGAGMAFMGMGMGMNAAGGFMGQASQTNMQQMQMNQAAQRAAQGAGQQQGAGAKAAGEWFCTECGHKNTGKFCAECGTPKPQGSGCPSCGAELKAGAKFCPECGTKLLEHHHHHH | not failed
18 | MVSRQEGTLYSRKRDFTVCGEEFHNSFKKSKQEDQSQSTLFNERPKSESMRSITFDFELHLHTPLPSDWQTKMSLDLELNLSPSGSPSRTTTKKYESSSIHNETVSSSKIKVLTNTSKKSIIGTGLSRSPSWLAFEGGDDNDVDHKGQEMVTTVCMKCHMLVMLCTSTPVCPNCKFMHPHDHSSTKLFKPSNLLRLLC | failed
19 | MVSYPVWDSAMFAYTISSHILLVTLTLGLALLITISEFIGIKYKNRYFLTLARKASTALVINFAVGTASGIFMAVELYLFWPEFMKVVGAVAMSAFYAEVFAFLLESITLMMYVYFWDNFKNRWNHWLTSIGVLVGTGGSAALITDVNAWMNTPEGSFNIPYYLKTGIITDVNPWKVFWEPSTFAEQFHMYAVEYFAGSMMLLGYFAYKYLRSSGADERLVYSAGLKILSVIAIIDIIIVGASGSNELDTLLVVEPLKYAALEQDMVPVTYGAPEHIFGIIINGHPAYYVNLPLAQSLLAYPFTFGHGYIPGLSSYPSSVWPPSFVHDTLDLMVGFGLLMGFFWLIVVIMYFMKKDPLNKRSVLKALMFFSGMAVYTMEDGWYTAEVGRVPGIILYDKPPYYVMTIGQAASTSPVVFPLGMAIIIFYIVLIPLTLYFMAKVLKVSNIEDDLRHADDDLSKVGKSTPAGMR | failed
20 | MVTKLALLGAGRIGKVHAKAITTDSRAKLVAVVDAMAGAAEAIAREAQCKVSTIDEVLADKTIDAVIICTPTNTHADLIERFARAGKAIFCEKPVDLDVARAEACAKVVEETGAKVMLGFNRRFDPHFQAVHKAIEDGRIGKVEMVTITSRDPGPPPAEYIKVSGGIFRDMTIHDFDMARFLLGEEVESVFATGSVLVNPEIGALGDFDSASIILTTKSGRQAIISNSRRATYGYDQRIEVHGSEGSAAAENQRPVSIEIANADGYTRPPLHDFFMTRYTTAYAAEIAAFIDSIENNVSPSPSIKDGLIALKLADAALKSATSKTVVTIG | failed
21 | MVTLSDPNRRSRRIKRITIVGCLGNLLLTIGKFFSGFVGHSGAMIADAVHSLSDLLTDFVVFIFISISGKPSDKNHDYGHGKFETLATAIIAVTLIIIGAMLCSDGLTKVYRYLRFGDELARPGLIALLMAFVSIVAKEWLFRITRCVGKEENSRSVIANAWHHRSDAYTSVATFIGIGCAFLLGRGWMILEPLSAAVVSVFIIKVGFQMAVPAFRDLLEQSLPDDIEEEIEKIICSESMVKGVRRIRTRNIGNYYAVEADILMDGGLSVALSHAATQRVEKLLRGRYGQPTHIVIHVEPFS | failed
22 | MVTLTLLEPQQKTPLKQWCFENSSVIRIGRAADNHVILSDNLVSRHHLEIRQVSSGGGGSWQVVSKGTNGTFLNGVLVIQDALPNNALLQLAQGGPILQFQVQGIIPPEWQSISGSDSPLSGRGSLAEKSSPELSNNPGSLTCTHEGNSPQNLFCIHCGQPLSVIQTIRHYQVLRTLGQGGMGTTYLAWDAAGVIVGHPKLLVLKQMNADMARIAKAQELFEREAYTLKSLDHPGIPRYYDFFVEGGKKYLAMELVHGQDLEKRIYATGPVIPSLAIAWMIQTCDILDYLHRQEQPLIHRDIKPANLMVRTANNQIAVLDFGAVKEIGTTPGTRIGAEGYCAPEQERGQPLTQSDLYAIGPTIIFLLTGENPFKFYRQKGRGFRFDVSKIPTITPKLRDVIERTTEPLPRDRFQSAKELAAALAACK | failed
